Substrate in series [1]: NC(N)=Nc1nc(CSCCC(N)=NS(N)(=O)=O)cs1
Nature of the series: not read.

Substrate in series [2]: CN/C(=N/CCSCc1nc[nH]c1C)NC#N
Nature of the series: not read.

Substrate in series [3]: CNC(=C[N+](=O)[O-])NCCSCc1ccc(CN(C)C)o1
Nature of the series: TP_TRANSPORTER: cell accumulation in hOAT3 expressing HEK cells. The series is classed as functional, cell-based, HEK293.

B1: Organic anion transporter 3 (Homo sapiens) (protein)
chain: MTFSEILDRVGSMGHFQFLHVAILGLPILNMANHNLLQIFTAATPVHHCRPPHNASTGPWVLPMGPNGKPERCLRFVHPPNASLPNDTQRAMEPCLDGWVYNSTKDSIVTEWDLVCNSNKLKEMAQSIFMAGILIGGLVLGDLSDRFGRRPILTCSYLLLAASGSGAAFSPTFPIYMVFRFLCGFGISGITLSTVILNVEWVPTRMRAIMSTALGYCYTFGQFILPGLAYAIPQWRWLQLTVSIPFFVFFLSSWWTPESIRWLVLSGKSSKALKILRRVAVFNGKKEEGERLSLEELKLNLQKEISLAKAKYTASDLFRIPMLRRMTFCLSLAWFATGFAYYSLAMGVEEFGVNLYILQIIFGGVDVPAKFITILSLSYLGRHTTQAAALLLAGGAILALTFVPLDLQTVRTVLAVFGKGCLSSSFSCLFLYTSELYPTVIRQTGMGVSNLWTRVGSMVSPLVKITGEVQPFIPNIIYGITALLGGSAALFLPETLNQPLPETIEDLENWSLRAKKPKQEPEVEKASQRIPLQPHGPGLGSS
B1: the Km in series [1] is 124 µM; in series [2], 149 µM; in series [3], 234 µM.
